Test results from US20200347143A1 (GLENMARK PHARMACEUTICALS S A, published 2020).
Substitutions are numbered along the chain they refer to.

B1: 11D4 IgG2 (antibody, V domains shown)
VH: EVQLVESGGGLVQPGGSLRLSCAASGFTFSSYSMNWVRQAPGKGLEWVSYISSSSSTIDYADSVKGRFTISRDNAKNSLYLQMNSLRDEDTAVYYCARESGWYLFDYWGQGTLVTVSS
VL: DIQMTQSPSSLSASVGDRVTITCRASQGISSWLAWYQQKPEKAPKSLIYAASSLQSGVPSRFSGSGSGTDFTLTISSLQPEDFATYYCQQYNSYPPTFGGGTKVEIKR
B2: 9B12 IgG1 (antibody, V domains shown)
VH: QVQLQESGPGLVKPSQTLSLTCAVYGGSFSSGYWNWIRKHPGKGLEYIGYISYNGITYHNPSLKSRITINRDTSKNQYSLQLNSVTPEDTAVYYCARYKYDYDGGHAMDYWGQGTLVTVSS
VL: DIQMTQSPSSLSASVGDRVTITCRASQDISNYLNWYQQKPGKAPKLLIYYTSKLHSGVPSRFSGSGSGTDYTLTISSLQPEDFATYYCQQGSALPWTFGQGTKVEIKR
notes: also called OX40mab24
B3: 106-222 IgG1 (antibody, V domains shown)
VH: QVQLVQSGSELKKPGASVKVSCKASGYTFTDYSMHWVRQAPGQGLKWMGWINTETGEPTYADDFKGRFVFSLDTSVSTAYLQISSLKAEDTAVYYCANPYYDYVSYYAMDYWGQGTTVTVSS
VL: DIQMTQSPSSLSASVGDRVTITCKASQDVSTAVAWYQQKPGKAPKLLIYSASYLYTGVPSRFSGSGSGTDFTFTISSLQPEDIATYYCQQHYSTPRTFGQGTKLEIKR
B4: 2H6_hzG3v9_8 (bispecific antibody, human IgG1, kappa, L234A L235A)
heavy: not shown
light: DIQLTQSPSSLSASVGDRVTITCRASESVDNYGISFMNWFQQKPGKAPKLLIYAASNQKSGVPSRFSGSGSGTDFTLTISSLQPEDFATYFCQQSKEVPLTFGQGTKVEIKRTVAAPSVFIFPPSDEQLKSGTASVVCLLNNFYPREAKVQWKVDNALQSGNSQESVTEQDSKDSTYSLSSTLTLSKADYEKHKVYACEVTHQGLSSPVTKSFNRGEC
B5: 1A7 IgG1 (antibody, V domains shown)
VH: EVQLVQSGAEVKKPGASVKVSCKASGYTFTDSYMSWVRQAPGQGLEWIGDMYPDNGDSSYNQKFRERVTITRDTSTSTAYLELSSLRSEDTAVYYCVLAPRWYFSVWGQGTLVTVSS
VL: B2 VL with K53R, H55R, Y71F, S92H, A93T, W96P
B6: Humanized 7H11 VH1/VL1 IgG1 (antibody, V domains shown)
VH: QVQLVQSGAEVKKPGASVKVSCKASGYTFTRYYMHWVRQAPGQGLEWMGWIYPGDGSTKYSQKFQGRVTITRDTSASTAYMELSSLRSEDTAVYYCAREYGNYDYWGQGTLVTVSS
VL: DIVMTQSPDSLAVSLGERATINCKSSQSLLNSGNQKNYLAWYQQKPGQPPKLLIYGASTRESGVPDRFSGSGSGTDFTLTISSLQAEDVAVYYCQNDHSYPYTFGQGTKLEIKR
notes: human IgG1, kappa; also called Humanized VH1-VL1 IgG1
B7: Humanized 7H11 VH2/VL1 IgG1 (antibody, V domains shown)
VH: B6 VH with K59N, S61A, I70M, A76I, S85R, E89D
VL: B6 VL
notes: human IgG1, kappa; also called Humanized VH2-VL1 IgG1
B8: Humanized 7H11 VH3/VL1 IgG1 (antibody, V domains shown)
VH: B6 VH with W50I, K59S, S61A, I70M, A76T, A79V
VL: B6 VL
notes: human IgG1, kappa; also called Humanized VH3-VL1 IgG1

molecular target: rat OX40-Fc (rat); assay: ELISA on coated rat OX40-Fc
Description: (§1) These constructs were expressed in HEK293-EBNA1 cells and purified using protein A. Then, human and rat OX40-Fc were tested in ELISA and Biacore to determine antibody cross-reactivity. For the ELISA, 96 well-microtiter plates (Costar USA, distributor VWR AG, Nyon, Switzerland) were coated with 100 μl of recombinant human or rat OX40-Fc at 2 μg/ml in PBS. Plates were incubated overnight at 4° C. and were then blocked with PBS 2% BSA (Bovine Serum Albumine, PAA Laboratories, Pasching, Austria) at room temperature (RT) for one hour. The blocking solution was removed and the purified antibodies were added at 10 μg/ml in PBS 2% BSA. The plates were incubated at RT for 1 hour, then washed 5 times with PBS 0.01% Tween-20 (Sigma-Aldrich Chemie GmbH, Buchs, Switzerland). […] Plates were incubated for 1 hour at RT, washed 5 times with PBS 0.01% Tween-20 and the TMB substrate (Bio-rad Laboratories AG, Reinach, Switzerland) was added to the plates and the reaction stopped after 5 minutes by adding H₂SO₄. Absorbance was then read at 450 nm by a microplate reader (Biotek, USA; distributor: WITTEC AG, Littau, Switzerland). Biacore experiments were specifically conducted with Hexa-hzG3V9 and Hexa-hz1D10v1 which are dAb-Fc fusion proteins. […] Binding of human and cyno OX40-Fc molecules was determined by successively injecting these proteins on the 4 flow-paths (flow-path 1 and 3 being used as references) at a concentration of 200 nM and a flow rate of 30 uL/min for 240 seconds. Regeneration between the two injections was done using 3M MgCl2, at 30 uL/min for 60 seconds. Using these two approaches, human/rat OX40 binding was assessed (table 16).

Sequence of rat OX40-Fc (rat) (chain, as listed by the source limits assumed): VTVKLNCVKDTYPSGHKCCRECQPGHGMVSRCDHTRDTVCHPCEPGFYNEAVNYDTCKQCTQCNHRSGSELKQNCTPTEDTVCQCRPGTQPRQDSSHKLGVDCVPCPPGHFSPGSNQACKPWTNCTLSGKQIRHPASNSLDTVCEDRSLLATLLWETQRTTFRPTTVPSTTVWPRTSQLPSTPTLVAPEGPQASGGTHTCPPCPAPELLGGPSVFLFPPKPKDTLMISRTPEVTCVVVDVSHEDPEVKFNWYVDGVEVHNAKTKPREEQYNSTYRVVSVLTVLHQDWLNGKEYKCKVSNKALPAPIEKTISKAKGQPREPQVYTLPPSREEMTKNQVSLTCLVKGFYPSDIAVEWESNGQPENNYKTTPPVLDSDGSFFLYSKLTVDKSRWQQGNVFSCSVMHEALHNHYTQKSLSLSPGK

Q: Does B1 bind?
A: no binding (tested: 10 µg/ml)

Q: Does B2 bind?
A: no binding (tested: 10 µg/ml)

Q: Does B3 bind?
A: no binding (tested: 10 µg/ml)

molecular target: T1, human OX40 on cells (human, UniProt P43489 29-277); assay: cell-based or functional assay
T1 sequence (looked up): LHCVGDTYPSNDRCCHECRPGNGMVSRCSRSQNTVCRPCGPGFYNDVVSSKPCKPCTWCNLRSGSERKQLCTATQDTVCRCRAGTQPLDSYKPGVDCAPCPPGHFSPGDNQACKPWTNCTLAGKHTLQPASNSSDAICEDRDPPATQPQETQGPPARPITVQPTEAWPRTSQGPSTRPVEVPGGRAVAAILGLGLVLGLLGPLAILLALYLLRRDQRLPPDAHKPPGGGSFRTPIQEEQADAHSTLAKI

Q: Which “% donor responder (>2), SEB assay, IL-2 release” value (“% donor responder” for short) does the source give for B1 here?
A: 18%

Q: And the “Mean, normalized IL-2 release, SEB assay” value?
A: 1.87

Q: Which results are given for B4?
A: % donor responder (>2), SEB assay, IL-2 release: 100%; Mean, normalized IL-2 release, SEB assay: 48.4

Q: With B2 as the binder, how does the “% donor responder” value read?
A: 50%

Q: What about the “Mean, normalized IL-2 release, SEB assay” value of the same binder?
A: 2.36

Q: For B3, which “% donor responder” value is on record?
A: 6%

Q: What about the “Mean, normalized IL-2 release, SEB assay” value of the same binder?
A: 0.86

molecular target: T2, human OX40-Fc (human); assay: ELISA on coated human OX40-Fc, antibody 10 µg/ml
T2 construct: also called recombinant human OX40-Fc; human OX40 (HHHH)
Description: as §1

Q: Does B2 bind?
A: binds

Q: Does B5 bind?
A: binds

Q: Does B3 bind?
A: binds

molecular target: T1, human OX40 on cells; assay: flow cytometry on HPB-ALL cells, 10 µg/ml antibody
Description: HPB-ALL cells (DSMZ, Braunschweig, Germany, Cat. No: ACC483) were used as a human OX40 positive cell line for FACS staining. HPB-ALL were maintained in RPMI 1640 supplemented with 10% FCS and 100 U/ml Penicillin and 100 μg/ml streptomycin. 4×10e5 HPB-ALL cells in FACS buffer (PBS supplemented with 1% BSA and 0.1% sodium azide) were incubated for 45 min on ice with the anti-OX40 antibody of interest kept at a concentration of 10 μg/ml An irrelevant human IgG1 was used as an isotype control; the cells were incubated with a 1/200 dilution of anti-Human Fc-PE (EBioscience, Vienna, Austria) for 45 min on ice. Cells were then washed again and resuspended in 200 μl FACS buffer. The relative mean fluorescence of each sample was measured on a FACSCalibur instrument (BD Biosciences, Allschwil, Switzerland).
A first set of 16 humanized antibodies of human gamma one isotype were prepared. These first humanized candidates were assessed for transient expression in HEK293E cells and binding to HB-ALL cell by flow cytometry (Table 7).

Q: How did the MFI turn out when B6 was run?
A: 120

Q: Which MFI does the source give for B7 here?
A: 120

Q: How did the MFI turn out when B8 was run?
A: 121

molecular target: T3, recombinant human OX40-his protein (human, UniProt P43489 29-214); assay: SPR (BIAcore 2000), antibody captured on Protein A, OX40-his injected
T3 construct: Secreted via the native signal peptide, which lies within residues 1-214; also called Human OX40R-His; histidine tagged human OX40 receptor extracellular domain
T3 sequence: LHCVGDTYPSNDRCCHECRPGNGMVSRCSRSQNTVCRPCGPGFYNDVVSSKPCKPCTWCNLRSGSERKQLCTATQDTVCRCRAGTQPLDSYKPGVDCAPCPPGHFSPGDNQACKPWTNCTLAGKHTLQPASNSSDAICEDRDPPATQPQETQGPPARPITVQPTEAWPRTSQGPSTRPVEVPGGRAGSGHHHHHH
Description: SPR analysis was used to measure the association and dissociation rate constants for the binding kinetics of the anti-OX40 antibodies. The binding kinetics were measured on a BIAcore 2000 (BIAcore-GE Healthcare Europe GmbH, Glattbrugg, Switzerland) at room temperature and analyzed with the BiaEvaluation software (v4.1, GE Healthcare Europe GmbH).
Measurements were performed on CM5 sensor chips (Biacore 2000, GE Healthcare Europe GmbH, Cat. No: BR-1000-14) individually coupled with Protein A (Sigma, Buchs, Switzerland, Cat. No: P7837) using a commercial amine coupling kit (GE Healthcare Europe GmbH, Cat. No: BR-1000-50). 200-600 RUs of humanized antibody were captured. Dilution series of OX40-his were injected at a flow rate of 10 μl/min in HBS-EP buffer (GE Healthcare Europe GmbH, Cat. No: BR1001-88). After each binding event, the surface was regenerated with 10 μl of glycine buffer pH 1.5. Experimental data were processed using a 1:1 Langmuir model with local Rmax. The dissociation time was about 7 min. Measurements were performed in duplicates or triplicates and included zero-concentration samples for referencing. Both Chit and residual values were used to evaluate the quality of a fit between the experimental data and individual binding models.

Q: For B6, which Kd is on record?
A: 35 nM

Q: And the koff?
A: 0.00058 s⁻¹

Q: And the kon?
A: 16700 M⁻¹ s⁻¹

Q: B7 was tested. Which Kd did it give?
A: 21 nM

Q: And the koff?
A: 0.0013 s⁻¹

Q: And the kon?
A: 58500 M⁻¹ s⁻¹

Q: How did the Kd turn out when B8 was run?
A: 80 nM

Q: What about the koff of the same binder?
A: 0.0055 s⁻¹

Q: What about the kon of the same binder?
A: 62500 M⁻¹ s⁻¹
